Data on 33 substances can be found in patent US20240294646A1.

By Kd is commonly meant the concentration at which binding is half-saturated. Lower therefore signals higher affinity.

The target of assay [1] is FcγRIIb (UniProt P31994). Kind of assay: SPR; ratio of IIb-fold to IIaR-fold, FcγRIIaR as comparison receptor. (In general: In SPR one partner is held on a chip, and binding of the other changes the refractive index at the surface.)
Target sequence in this assay (P31994 43-217): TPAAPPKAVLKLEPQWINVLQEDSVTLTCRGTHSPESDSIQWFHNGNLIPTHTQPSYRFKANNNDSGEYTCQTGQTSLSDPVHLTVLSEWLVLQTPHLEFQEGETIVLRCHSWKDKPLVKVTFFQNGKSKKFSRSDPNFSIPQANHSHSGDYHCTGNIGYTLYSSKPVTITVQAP
In assay [2] the target is C1q (human) (UniProt P02745). In words: ELISA; antibody coated, human C1q added, signal as % of WT.
C1q (human), sequence (P02745 23-245 limits assumed, chain 1 of 3): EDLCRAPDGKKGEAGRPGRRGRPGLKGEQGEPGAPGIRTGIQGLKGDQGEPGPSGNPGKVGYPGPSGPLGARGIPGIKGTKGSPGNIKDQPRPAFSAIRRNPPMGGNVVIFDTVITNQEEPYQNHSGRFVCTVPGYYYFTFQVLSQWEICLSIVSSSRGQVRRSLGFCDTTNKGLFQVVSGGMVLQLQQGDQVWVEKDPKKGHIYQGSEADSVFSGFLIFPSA
C1q (human), sequence (P02746 28-253 limits assumed, chain 2 of 3, further chain): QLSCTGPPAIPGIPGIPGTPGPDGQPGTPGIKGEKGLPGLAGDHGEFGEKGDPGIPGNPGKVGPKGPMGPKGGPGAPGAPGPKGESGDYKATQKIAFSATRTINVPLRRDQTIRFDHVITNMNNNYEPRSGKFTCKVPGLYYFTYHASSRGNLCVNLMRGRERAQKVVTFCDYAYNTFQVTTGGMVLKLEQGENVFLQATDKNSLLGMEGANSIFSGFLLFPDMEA
C1q (human), sequence (P02747 29-245 limits assumed, chain 3 of 3, further chain): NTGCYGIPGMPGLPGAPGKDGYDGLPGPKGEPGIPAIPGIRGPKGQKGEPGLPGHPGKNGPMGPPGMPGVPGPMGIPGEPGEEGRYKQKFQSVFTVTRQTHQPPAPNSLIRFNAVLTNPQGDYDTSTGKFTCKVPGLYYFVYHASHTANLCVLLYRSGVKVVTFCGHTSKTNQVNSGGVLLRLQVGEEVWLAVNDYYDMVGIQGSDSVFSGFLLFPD
Assay [3] deals with FcγRIIb (UniProt P31994). In words: SPR; trastuzumab FSA variant against FSA WT v21653.
Target sequence in this assay (P31994 43-217): as the sequence (P31994 43-217) above
The target in assay [4] is FcγRIIaR (UniProt P12318). In words: SPR; trastuzumab FSA variant against FSA WT v21653.
FcγRIIaR, sequence (P12318 34-217): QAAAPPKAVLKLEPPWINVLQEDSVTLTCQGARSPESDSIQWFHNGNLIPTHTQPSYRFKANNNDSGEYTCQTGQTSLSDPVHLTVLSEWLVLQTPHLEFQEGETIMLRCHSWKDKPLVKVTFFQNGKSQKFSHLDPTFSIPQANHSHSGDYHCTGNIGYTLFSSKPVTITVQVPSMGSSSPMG
The target of assay [5] is FcγRIIb (UniProt P31994). In words: SPR (Protocol 1); IIb-Fold over IIaR-Fold.
Target sequence in this assay (P31994 43-217 limits assumed): as the sequence (P31994 43-217) above
Assay [6] concerns the target FcγRIIb (UniProt P31994). Kind of assay: SPR (Protocol 1), one-armed antibody captured on HER2, receptor as analyte; fold over wild-type.
Target sequence in this assay (P31994 43-217 limits assumed): as the sequence (P31994 43-217) above
For assay [7], the target named is FcγRIIaR (UniProt P12318). The assay is described as above.
The target in assay [8] is FcγRIIaR, soluble extracellular domain (UniProt P12318). Kind of assay: SPR (Biacore 4000, Protocol 2): antibody captured on immobilised HER2, soluble receptor as analyte.
FcγRIIaR, soluble extracellular domain, sequence (P12318 34-217): as the sequence (P12318 34-217) above
The target of assay [9] is FcγRIIb, soluble extracellular domain (UniProt P31994). The description is as above.
FcγRIIb, soluble extracellular domain, sequence (P31994 43-217): as the sequence (P31994 43-217) above

As for “Variant 32278 (trastuzumab FSA; chain A S267A_strat2, chain B G237L_strat2) (antibody)”, the IIb Selectivity (IIb-Fold/IIaR-Fold) in [1] stood at 17. Also, in assay [2], the C1q Binding (% WT) was 1 % WT. In [3], this substance had an IIb-fold (fold change in affinity over wild-type) of 155 fold over WT. In [4], this substance yielded an IIaR-fold (fold change in affinity over wild-type) of 9 fold over WT.

Regarding “variant 16491, one-armed trastuzumab antibody (Scaffold 2), chain B E269K_G236N”, the IIb/IIaR Selectivity in [5] is 2.48. Further, the IIb-Fold (fold affinity over wild-type) in [6] was found to be 0.24 fold. Also, the IIaR-Fold (fold affinity over wild-type) in assay [7] was 0.1 fold.

In the case of “Variant 32271 (trastuzumab FSA; chain A G237L_strat2, chain B G237L_strat2) (antibody)”, in assay [1], the IIb Selectivity (IIb-Fold/IIaR-Fold) is 26. For the same substance, the C1q Binding (% WT) in assay [2] worked out at 3 % WT. Also, in [3], the IIb-fold (fold change in affinity over wild-type) came to 251 fold over WT. In [4], this substance yielded an IIaR-fold (fold change in affinity over wild-type) of 10 fold over WT.

Consider “variant 16532, one-armed trastuzumab antibody (Scaffold 2), chain A E269K, chain B S267I”, for which, in assay [5], the IIb/IIaR Selectivity came to 1.84. Further, the IIb-Fold (fold affinity over wild-type) in [6] was 0.95 fold. Besides, the IIaR-Fold (fold affinity over wild-type) in [7] amounted to 0.51 fold.

With “variant 16576, one-armed trastuzumab antibody (Scaffold 2), chain B E269K_A327G_A330S_P331S_L234F_H268Q_K274Q”, the IIb/IIaR Selectivity in [5] was found to be 1.89. The IIb-Fold (fold affinity over wild-type) in assay [6] stood at 0.21 fold. The IIaR-Fold (fold affinity over wild-type) in assay [7] was 0.11 fold.

As for “Variant 32258 (trastuzumab FSA; chain A A237L_strat1, chain B G330*K_strat1) (antibody)”, in assay [1], the IIb Selectivity (IIb-Fold/IIaR-Fold) was determined as 44. For the same substance, the C1q Binding (% WT) in assay [2] was 201 % WT. Moreover, the IIb-fold (fold change in affinity over wild-type) in assay [3] was determined as 476 fold over WT. This substance registered an IIaR-fold (fold change in affinity over wild-type) in [4] of 11 fold over WT.

Substance “variant 16549, one-armed trastuzumab antibody (Scaffold 2), chain B E269K_L234D” registered an IIb/IIaR Selectivity in assay [5] of 1.83. The IIb-Fold (fold affinity over wild-type) in assay [6] was determined as 0.35 fold. The IIaR-Fold (fold affinity over wild-type) in [7] was determined as 0.19 fold.

For “variant 16531, one-armed trastuzumab antibody (Scaffold 2), chain B E269K_S267I”, in assay [5], the IIb/IIaR Selectivity was found to be 1.45. The IIb-Fold (fold affinity over wild-type) in assay [6] was determined as 0.27 fold. In addition, the IIaR-Fold (fold affinity over wild-type) in assay [7] was found to be 0.19 fold.

As for “Variant 32267 (trastuzumab FSA; chain A S239H_strat1, chain B G330*K_strat1) (antibody)”, in assay [1], the IIb Selectivity (IIb-Fold/IIaR-Fold) came out at 33. Moreover, in assay [2], the C1q Binding (% WT) stood at 201 % WT. The substance also gave an IIb-fold (fold change in affinity over wild-type) in assay [3] of 803 fold over WT. The substance further yielded an IIaR-fold (fold change in affinity over wild-type) in [4] of 25 fold over WT.

Consider “variant 16550, one-armed trastuzumab antibody (Scaffold 2), chain A E269K, chain B L234D”, for which the IIb/IIaR Selectivity in assay [5] is 1.25. The IIb-Fold (fold affinity over wild-type) in assay [6] was 0.79 fold. Also, in assay [7], the IIaR-Fold (fold affinity over wild-type) worked out at 0.63 fold.

With “variant 16492, one-armed trastuzumab antibody (Scaffold 2), chain A E269K, chain B G236N”, the IIb/IIaR Selectivity in [5] is 1.83. Besides, the IIb-Fold (fold affinity over wild-type) in assay [6] was determined as 0.13 fold. Moreover, the IIaR-Fold (fold affinity over wild-type) in assay [7] was 0.07 fold.

With “Variant 32262 (trastuzumab FSA; chain A L234T_strat1, chain B G330*K_strat1) (antibody)”, the IIb Selectivity (IIb-Fold/IIaR-Fold) in assay [1] was 31. Moreover, in assay [2], the C1q Binding (% WT) turned out to be 210 % WT. This substance gave an IIb-fold (fold change in affinity over wild-type) in assay [3] of 697 fold over WT. The substance also registered an IIaR-fold (fold change in affinity over wild-type) in assay [4] of 22 fold over WT.

Consider “Variant 32279 (trastuzumab FSA; chain A S267K_strat2, chain B G237L_strat2) (antibody)”, for which the IIb Selectivity (IIb-Fold/IIaR-Fold) in [1] amounted to 19. Also, the C1q Binding (% WT) in [2] came out at 1 % WT. The IIb-fold (fold change in affinity over wild-type) in [3] is 53 fold over WT. Further, in assay [4], the IIaR-fold (fold change in affinity over wild-type) was determined as 3 fold over WT.

As to “Variant 32266 (trastuzumab FSA; chain A S239G_strat1, chain B G330*K_strat1) (antibody)”, the IIb Selectivity (IIb-Fold/IIaR-Fold) in assay [1] was determined as 38. The C1q Binding (% WT) in assay [2] amounted to 219 % WT. For the same substance, the IIb-fold (fold change in affinity over wild-type) in assay [3] stood at 1150 fold over WT. Further, in [4], the IIaR-fold (fold change in affinity over wild-type) worked out at 30 fold over WT.

Take “Variant 32264 (trastuzumab FSA; chain A L235D_strat1, chain B G330*K_strat1) (antibody)”: in assay [1], the IIb Selectivity (IIb-Fold/IIaR-Fold) stood at 33. In [2], the C1q Binding (% WT) turned out to be 146 % WT. The same substance came in with an IIb-fold (fold change in affinity over wild-type) in assay [3] of 557 fold over WT. In addition, the IIaR-fold (fold change in affinity over wild-type) in [4] was 17 fold over WT.

Regarding “variant 16571, one-armed trastuzumab antibody (Scaffold 2), chain A E269K, chain B L234F”, the IIb/IIaR Selectivity in assay [5] was 0.97. Also, the IIb-Fold (fold affinity over wild-type) in assay [6] came out at 0.4 fold. Moreover, in assay [7], the IIaR-Fold (fold affinity over wild-type) was 0.42 fold.

Consider “Variant 32265 (trastuzumab FSA; chain A S239A_strat1, chain B G330*K_strat1) (antibody)”, for which the IIb Selectivity (IIb-Fold/IIaR-Fold) in assay [1] was 31. Moreover, the C1q Binding (% WT) in assay [2] was determined as 224 % WT. The IIb-fold (fold change in affinity over wild-type) in assay [3] stood at 1120 fold over WT. Further, in [4], the IIaR-fold (fold change in affinity over wild-type) turned out to be 36 fold over WT.

For “Variant 32270 (trastuzumab FSA; chain A E272Y_strat2, chain B G237L_strat2) (antibody)”, the IIb Selectivity (IIb-Fold/IIaR-Fold) in assay [1] is 18. Further, the C1q Binding (% WT) in assay [2] is -1 % WT. The IIb-fold (fold change in affinity over wild-type) in assay [3] came to 196 fold over WT. The substance further gave an IIaR-fold (fold change in affinity over wild-type) in assay [4] of 11 fold over WT.

On to “Variant 32272 (trastuzumab FSA; chain A K330T_strat2, chain B G237L_strat2) (antibody)”, for which the IIb Selectivity (IIb-Fold/IIaR-Fold) in [1] turned out to be 18. In addition, the C1q Binding (% WT) in assay [2] came to 3 % WT. In addition, the IIb-fold (fold change in affinity over wild-type) in [3] amounted to 164 fold over WT. For the same substance, in assay [4], the IIaR-fold (fold change in affinity over wild-type) amounted to 9 fold over WT.

On to “Variant 32259 (trastuzumab FSA; chain A A237N_strat1, chain B G330*K_strat1) (antibody)”, for which the IIb Selectivity (IIb-Fold/IIaR-Fold) in assay [1] came out at 33. In addition, the C1q Binding (% WT) in [2] is 192 % WT. The substance further registered an IIb-fold (fold change in affinity over wild-type) in assay [3] of 452 fold over WT. The IIaR-fold (fold change in affinity over wild-type) in [4] turned out to be 14 fold over WT.

“Variant 26729 (A_P271A_strat2), one-armed trastuzumab antibody with heterodimeric IgG1 Fc”: the Kd in [8] was 93 nM; in [9], 34 nM.

For “Variant 26736 (A_P271T_strat2), one-armed trastuzumab antibody with heterodimeric IgG1 Fc”, the figures for the Kd in assay [8] and in [9] were 120 nM and 47 nM, respectively.

As to “Variant 32254 (trastuzumab FSA; chain A S239H_strat1, chain B D329*I_F328*Y_strat1) (antibody)”, in assay [1], the IIb Selectivity (IIb-Fold/IIaR-Fold) amounted to 47. In addition, in assay [2], the C1q Binding (% WT) was determined as 159 % WT. Also, the IIb-fold (fold change in affinity over wild-type) in assay [3] was 159 fold over WT. The IIaR-fold (fold change in affinity over wild-type) in assay [4] was 3 fold over WT.

With “Variant 26735 (A_P271Y_strat2), one-armed trastuzumab antibody with heterodimeric IgG1 Fc”, the figures for the Kd in assay [8] and in assay [9] were 110 nM and 35 nM, respectively.

Consider “variant 16570, one-armed trastuzumab antibody (Scaffold 2), chain B E269K_L234F”, for which the IIb/IIaR Selectivity in assay [5] stood at 3.35. Besides, the IIb-Fold (fold affinity over wild-type) in [6] was 0.37 fold. For the same substance, in [7], the IIaR-Fold (fold affinity over wild-type) was determined as 0.11 fold.

“Variant 26728 (A_P271G_strat2), one-armed trastuzumab antibody with heterodimeric IgG1 Fc”: the Kd came to 64 nM in [8] and 22 nM in assay [9].

As to “variant 16489, one-armed trastuzumab antibody (Scaffold 2), chain A E269K, chain B G236D”, the IIb/IIaR Selectivity in [5] stood at 2.1. In addition, the IIb-Fold (fold affinity over wild-type) in [6] stood at 0.85 fold. In addition, the IIaR-Fold (fold affinity over wild-type) in assay [7] turned out to be 0.41 fold.

Take “variant 16577, one-armed trastuzumab antibody (Scaffold 2), chain A E269K, chain B A327G_A330S_P331S_L234F_H268Q_K274Q”: the IIb/IIaR Selectivity in assay [5] was determined as 1.26. Besides, the IIb-Fold (fold affinity over wild-type) in assay [6] is 1.03 fold. Besides, the IIaR-Fold (fold affinity over wild-type) in assay [7] came out at 0.82 fold.

Take “Variant 26733 (A_P271F_strat2), one-armed trastuzumab antibody with heterodimeric IgG1 Fc”: the Kd in assay [8] came to 87 nM; in [9], 31 nM.

Turning to “Variant 26731 (A_P271L_strat2), one-armed trastuzumab antibody with heterodimeric IgG1 Fc”, the results for the Kd in [8] and in assay [9] were 68 nM and 22 nM, respectively.

“Variant 26730 (A_P271V_strat2), one-armed trastuzumab antibody with heterodimeric IgG1 Fc”: the Kd came to 85 nM in assay [8] and 27 nM in [9].

Consider “variant 16488, one-armed trastuzumab antibody (Scaffold 2), chain B E269K_G236D”, for which the IIb/IIaR Selectivity in assay [5] came to 0.91. The IIb-Fold (fold affinity over wild-type) in assay [6] was determined as 0.16 fold. In addition, the IIaR-Fold (fold affinity over wild-type) in [7] turned out to be 0.17 fold.

Turning to “Variant 26723 (A_D270E_strat2), one-armed trastuzumab antibody with heterodimeric IgG1 Fc”, the Kd in assay [8] was determined as 42 nM; in assay [9], 13 nM.
